Consider 2 substances from publication PMC12145522.

The target of assay [1] is RNAP-HrpL holoenzyme (His-tagged) (Pseudomonas syringae pv. actinidiae | not stated) (UniProt P37929). The experiment in a line: MST; RNAP-HrpL holoenzyme labelled with RED-Tris-NTA, 50 nM, titrated with GST-TrpR2 from 0.38 nM to 25 μM; MST buffer; 25℃; Monolith NT.115, medium MST power, 90 % LED power; triplicate.
The target in assay [2] is GST tagged TrpR2 (Pseudomonas syringae pv. actinidiae M228). Description: MST.

UniProt P37929, sequence (P37929 whole entry, looked up): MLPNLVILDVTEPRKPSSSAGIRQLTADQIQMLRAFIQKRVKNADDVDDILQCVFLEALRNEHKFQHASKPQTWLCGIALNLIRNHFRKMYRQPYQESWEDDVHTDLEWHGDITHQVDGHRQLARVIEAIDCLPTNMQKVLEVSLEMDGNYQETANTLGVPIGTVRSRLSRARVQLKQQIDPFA

Take GST tagged TrpR2 (natural protein): the Kd (usually the equilibrium constant for the complex coming apart) in assay [1] worked out at 2.41 µM. For RNAP-His, the Kd in assay [2] worked out at 7.75 µM.
